Test results reported in patent US12578329B2, “Reagent kit containing polypeptide for use in detection of intermolecular interactions” (SHIMADZU CORPORATION, priority 2021, dated 2026).
“Also recorded” adds a separate entry of the source. One block for each molecule: values may come before it.

Experiments:
[1] = Emission value of secretion-expressed luciferase in COS-7 culture medium, coelenterazine substrate; assay type: biochemical; conditions: for emission values (rank order): Experiment 5
Method: (§1) • (1) COS-7 cells derived from the kidney of African green monkey were inoculated in a 24-well dish, and on the next day, subconfluency was attained. • (2) 25 μL of Opti-MEM (Thermo Fisher Scientific™), 400 ng (2 μL) of the plasmid, and 1 μL of P3000 (Invitrogen™, Waltham, MA) were mixed. • (3) 25 μL of Opti-MEM and 1 μL of lipofectoamine 3000 (Invitrogen™) were mixed. • (4) (2) and (3) were mixed together, followed by incubation at room temperature for 5 minutes. • (5) The mixture was added to the medium of (1). • (6) 500 μL of Dulbecco's modified Eagle's medium was added, followed by culturing the cells at 37° C. for 1 day and then collecting the medium. The medium contained secretion-expressed luciferase. • (7) To 100 μL of the medium, coelenterazine was added as a substrate at a final concentration of 5 μM, followed by measuring the emission value by using Enspire multi-mode plate reader (PerkinElmer™, Waltham, MA).
By the same manner as in Experiment 2, the emission value was measured.
(§2) The emission value was measured in the same manner as in Experiment 2 except that the final concentration of coelenterazine was changed to 0.5 μM. […] The emission value was measured in the same manner as in Experiment 2 except that the final concentration of coelenterazine was changed to 5 μM.

[2] = Emission value of secretion-expressed luciferase in COS-7 culture medium, coelenterazine h substrate; assay type: biochemical; conditions: Experiment 5
Method: as §1
as §2, with “that coelenterazine h was used as a substrate in a” for “that the”, “of 5” for “of coelenterazine was changed to 0.5”, “of 25” for “of coelenterazine was changed to 5”

[3] = Emission value of secretion-expressed luciferase in COS-7 culture medium, furimazine substrate; assay type: biochemical; conditions: Experiment 5; furimazine in the concentration recommended by the manufacturer
Method: as §1
The emission value was measured in the same manner as in Experiment 2 except that furimazine, which was available from Promega™ as a NanoLuc® substrate, was used as a substrate in the concentration recommended by the manufacturer.

[4] = Stability of protein terminus: Western blot detection of Flag-tag and His-tag in culture supernatant; conditions: secretion-expressed luciferase in COS-7 culture supernatant; Western blotting
Description: In the same manner as in Experiment 2, the plasmid was transfected into COS-7 cells and culture supernatant was collected. Flag-tag added to the N terminus of each secretion-expressed luciferase and His-tag added to the C terminus thereof were detected by Western blotting (SDS-PAGE, Mini-PROTEAN TGX Gel StainFree 4-15% (Bio-Rad™, Hercules, CA)) (FIG. 17). The antibodies used were Anti 6×Histidine, Monoclonal Antibody (9C11), Peroxidase Conjugated (manufactured by FUJIFILM Wako Pure Chemical Corporation, 1:1000) and Monoclonal ANTI-FLAG (R) M2-Peroxidase (HRP) antibody produced in mouse, clone M2 (manufactured by Sigma-Aldrich™, St. Louis, MO, 1/1000), respectively, and detection was performed with Amesham Imager 680 (Cytiva™, Marlborough, MA).

[5] = Measurement of specific activity (enzyme concentrations adjusted by Western blot signal); assay type: biochemical
Method: The specific activities of NanoLuc®, ALuc30 wt, and picALuc30 were measured, with their enzyme concentrations adjusted based on the Western blot signal intensity obtained in Experiment 6.

[6] = Emission activity of divided enzyme (Escherichia coli lysates, single or mixed); assay type: biochemical; conditions: Experiment 11-2, coelenterazine 5 μM, Enspire multi-mode plate reader
Description: picALuc30 was divided to prepare plasmids (pET32 vectors) for expression of polypeptides from position 4 to 22, from position 23 to 120, from position 4 to 47, from position 48 to 120, from position 4 to 77, from position 80 to 120, from position 4 to 90, and from position 91 to 120 of the amino acid sequence in SEQ ID NO: 51. In the same manner as in Experiment 10, the plasmid was introduced into Escherichia coli SHuffle T7 Express lysY, and from the cultured bacterial cells, a lysate was obtained. To 100 μL of a single lysate or a mixture of lysates as specified in FIG. 25, coelenterazine was added as a substrate at a final concentration of 5 μM, followed by measuring the emission value by using an Infinite (registered trademark) 200 PRO plate reader (TECAN). Because the lysate contained luciferase fragments at high concentrations, it was expected that when fragment-containing lysates were mixed, two types of fragments were highly likely to encounter each other and these two fragments could form the original luciferase structure.
picALuc30 was divided to further prepare plasmids (pET32 vectors) for expression of polypeptides from position 4 to 58, from position 4 to 64, from position 4 to 72, from position 65 to 120, from position 73 to 120, and from position 104 to 120 of the amino acid sequence in SEQ ID NO: 51. In Experiment 11-2, emission values were measured in the same manner as in Experiment 11-1 except that an Enspire multi-mode plate reader (PerkinElmer™) was used for emission value detection.

[7] = GLuc: when secretion expressed from cells; cited from earlier work
[8] = Experiment 2, coelenterazine 5 μM, medium of transfected COS-7 cells

emission value [1, 8]: sufficiently high
B1: picALuc16: SEQ ID NO: 52; ALuc16 with deletion of N terminus and C terminus, corresponding to picALuc30 (protein)
chain: KLPGKKLPLEVLKELEANAQKAGCTRGCLICLSHIKCTAKMKKWLPGRCESWEGDKETGQGGIGEAIVDIPEIPGFKDLEPMEQFIAQVDLCVDCTTGCLKGLANVKCSDLLKKWLPSRCAT
modifications: picALuc16
notes: ALuc16 with deletion of N terminus and C terminus, corresponding to picALuc30

B2: ALuc30 wt: artificial luciferase; positions 20 to 212 of ALuc30 (SEQ ID NO: 28) without a signal sequence; about 21 kDa (protein)
chain: HHHHHHHHDIVGVEGKFGTTDLETDLFTIVEDMNVISRDTDVDANRADRGRRGKLPGKKLPLEVLKELEANAQKAGCTRGCLICLSHIKCTAKMKKWLPGRCESWEGDKETGQGGIGEAIVDIPEIPGFKELAPMEQFIAQVDLCADCTTGCLKGLANVKCSALLKKWLPSRCAGFADKIQAQVDTIKGAGGS
modifications: ALuc30
notes: artificial luciferase; about 21 kDa
emission values (rank order) ([1]; coelenterazine 0.5 μM): NanoLuc®>>picALuc30>TurboLuc™>ALuc30 wt>GLuc
emission values (rank order) ([1]; coelenterazine 5 μM): ALuc30 wt=picALuc30>NanoLuc®>TurboLuc™>GLuc
emission values (rank order) ([2]; coelenterazine h 5 μM): TurboLuc™=ALuc30 wt>>NanoLuc®>picALuc30>GLuc
emission values (rank order) ([2]; coelenterazine h 25 μM): picALuc30>>NanoLuc®=TurboLuc™=ALuc30 wt>>GLuc
emission value [3]: low as compared to NanoLuc® and TurboLuc™
stability of protein termini (Flag-tag and His-tag detection) [4]: both termini remaining
maximum emission value ([5]; Experiment 7): same maximum emission value as NanoLuc®
specific activity ([5]; coelenterazine or coelenterazine h as substrate): the same as the specific activity of picALuc

B3: position 4 to 72 and position 73 to 120: combination of polypeptides of these positions of SEQ ID NO: 51 (SEQ ID NOs: 80 and 84) (protein)
chain 1: GKKLPLEVLKELEANAQKAGCTRGCLICLSHIKCTAKMKKWLPGRCESWEGDKETGQGGIGEAIVDIPE
chain 2: IPGFKELAPMEQFIAQVDLCADCTTGCLKGLANVKCSALLKKWLPSRC
modifications: part of picALuc30
emission value [6]: high emission value

B4: position 4 to 72 and position 104 to 120: combination of polypeptides of these positions of SEQ ID NO: 51 (SEQ ID NOs: 80 and 85) (protein)
chain 1: B3 chain 1
chain 2: ANVKCSALLKKWLPSRC
modifications: part of picALuc30
emission value [6]: high emission value

B5: position 4 to 64 and position 65 to 120: combination of polypeptides of these positions of SEQ ID NO: 51 (SEQ ID NOs: 79 and 83) (protein)
chain 1: GKKLPLEVLKELEANAQKAGCTRGCLICLSHIKCTAKMKKWLPGRCESWEGDKETGQGGIG
chain 2: EAIVDIPEIPGFKELAPMEQFIAQVDLCADCTTGCLKGLANVKCSALLKKWLPSRC
modifications: part of picALuc30
emission value [6]: high emission value

B6: position 4 to 64 and position 73 to 120: combination of polypeptides of these positions of SEQ ID NO: 51 (SEQ ID NOs: 79 and 84) (protein)
chain 1: B5 chain 1
chain 2: B3 chain 2
modifications: part of picALuc30
emission value [6]: high emission value

B7: position 4 to 58 and position 23 to 120: combination of polypeptides of these positions of SEQ ID NO: 51 (SEQ ID NOs: 78 and 81) (protein)
chain 1: GKKLPLEVLKELEANAQKAGCTRGCLICLSHIKCTAKMKKWLPGRCESWEGDKET
chain 2: GCTRGCLICLSHIKCTAKMKKWLPGRCESWEGDKETGQGGIGEAIVDIPEIPGFKELAPMEQFIAQVDLCADCTTGCLKGLANVKCSALLKKWLPSRC
modifications: part of picALuc30
emission value [6]: high emission value

B8: position 4 to 72 and position 23 to 120: combination of polypeptides of these positions of SEQ ID NO: 51 (SEQ ID NOs: 80 and 81) (protein)
chain 1: B3 chain 1
chain 2: B7 chain 2
modifications: part of picALuc30
emission value [6]: high emission value

B9: ALuc30Δloop2N1: SEQ ID NO: 54; ALuc30 wt with N terminus (1 to 49) and loop 2 (122 to 128) deleted, Gly-Ser inserted; 14 kDa (protein)
chain: RGRRGKLPGKKLPLEVLKELEANAQKAGCTRGCLICLSHIKCTAKMKKWLPGRCESWEGDKETGQGGIGEAIVGSFKELAPMEQFIAQVDLCADCTTGCLKGLANVKCSALLKKWLPSRCAGFADKIQAQVDTIKGAGGS
modifications: ALuc30_del_loop2N1
notes: ALuc30 wt with N terminus (1 to 49) and loop 2 (122 to 128) deleted, Gly-Ser inserted; 14 kDa
emission value ([1]; Experiment 4, same manner as Experiment 2 (coelenterazine 5 μM)): about half the emission value of ALuc30ΔN1

emission value [1, 8]: sufficiently high
B10: picALuc48: SEQ ID NO: 53; ALuc48 with deletion of N terminus and C terminus, corresponding to picALuc30 (protein)
chain: HGGLPGKKMPLEVLLELEANAQRAGCTRGCLICLSKIKCTAKMKKWLPGRCESWAGDKETGQGGITEEETVDIPEIPGFKDLEPMEQFIAQVDLCVDCTTGCLKGLANVKCSDLLKKWLPSRCAT
modifications: picALuc48
notes: ALuc48 with deletion of N terminus and C terminus, corresponding to picALuc30

B11: NanoLuc®: known luciferase, about 19 kDa; SEQ ID NO: 73 (protein)
chain: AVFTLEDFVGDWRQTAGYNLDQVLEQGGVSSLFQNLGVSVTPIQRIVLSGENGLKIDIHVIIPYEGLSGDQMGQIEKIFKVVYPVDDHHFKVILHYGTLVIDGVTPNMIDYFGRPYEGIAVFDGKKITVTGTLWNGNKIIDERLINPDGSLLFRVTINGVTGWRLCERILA
modifications: oplophorus gracilirostris
emission values (rank order) ([1]; coelenterazine 0.5 μM): NanoLuc®>>picALuc30>TurboLuc™>ALuc30 wt>GLuc
emission values (rank order) ([1]; coelenterazine 5 μM): ALuc30 wt=picALuc30>NanoLuc®>TurboLuc™>GLuc
emission values (rank order) ([2]; coelenterazine h 5 μM): TurboLuc™=ALuc30 wt>>NanoLuc®>picALuc30>GLuc
emission values (rank order) ([2]; coelenterazine h 25 μM): picALuc30>>NanoLuc®=TurboLuc™=ALuc30 wt>>GLuc
emission value [3]: high emission values; also recorded: the same as when coelenterazine or coelenterazine h was used
emission value (known) [7]: very high
